Results from the DeepSol protein solubility set.

Assay: soluble on expression in E. coli; label from the status in PepcDB or PDB records

Row | Sequence | soluble on expression in E. coli
1 | MGSDKIHHHHHHMNKNPEIQFRSPEEIKAYQESRLAEELLYLQNHSRFYQHLFQAYHIDIQQIKTIEDLQQIPVTTKTDLQLHNEDFICVSRDEIIDYVTTSGTLGDPVTFVLTSEDLDRLAYNEYLSFTTTGCSRQDILQLMTTIDRRFMAGLAYYMGARELGMGVARVGNGIPELQWDTIRRIHPTCGMVVPSFLIKLIEFAEKNHIDYHHCSMQKCVCIGEALRNPDFTLNTLGKRIHEKWDSLQLYSTYASTEMQSSFTECNEFHGGHLQPELIIVEFLDDNNQPVKEGEAGEVTITTLGVRGMPLLRFKTGDICYHYTEPCACGRNTIRLSSILGRKGQMIKYKGTTLYPPALFDILDNIPHIKNYIVEVYTNELGTDEILIRIGSENRSEAFAKEIKDLFRSKVRVAPSINFESAEYIAKIQMPPMSRKIVKFIDLR | not soluble
2 | MAYPVSPIAGRRSNWRSFAASLNLEDGPASSDSTSSPSEQTSDGGEVYGDPSENLNSRKLKSDELKSLLADSERSKLLKKLSEANQYNRFLKRQLQMKDNDVVKFKSELAVMELELQALVALAEEIANFDVPSGSRKINGKYIQSHLLTRLEAVHDKVMEQIKDVDSLKHQEISVFWVGIAENVQIMGSFDGWSQGEAMSMEYSGYQARFSATLNLRPGRYEIKFLVDGEWRLSLEYPIDGEGSMQNNILVVN | not soluble
3 | MKPFLSACLIVKNEEEMLGKCLESLRRVIEEIIVVDTGSTDSTKEIARQFTDKVYDFEWMNDFSEARNFAASKANGEWIIAIDADECVDPDNFKEAIKEIKFHQNKFNMYLVEITSFSGALGENTTVNQMPRIYVNDGTICYKRAIHEQLEAVEGGLRVSLSSLKVYHYGYLSNVVVKQDKKS | soluble
4 | MPKISSRDGGRPAQRTVNPIIVTRRGKIARLESGLTPQEAQIEDLVFLRKVLNRADIPYLLIRNHKNRPVLAINIELRAGLERALAAACATEPMYAKTIDEPGLSPVLVATDGLSQLVDPRVVRLYRRRIAPGGFRYGPAFGVELQFWVYEETVIRCPVENSLSRKVLPRNEITPTNVKLYGYKWPTLDGMFAPHASDVVFDIDMVFSWVDGSDPEFRARRMAQMSQYVVGEGDDAEARIRQIDELKYALRSVNMFAPWIRRIFIATDSTPPPWLAEHPKITIVRAEDHFSDRSALPTYNSHAVESQLHHIPGLSEHFLYSNDDMFFGRPLKASMFFSPGGVTRFIEAKTRIGLGANNPARSGFENAARVNRQLLFDRFGQVITRHLEHTAVPLRKSVLIEMEREFPEEFARTAASPFRSDTDISVTNSFYHYYALMTGRAVPQEKAKVLYVDTTSYAGLRLLPKLRKHRGYDFFCLNDGSFPEVPAAQRAERVVSFLERYFPIPAPWEKIAADVSRRDFAVPRTSAPSEGALEHHHHHH | not soluble
5 | MTLVIGLTGGIASGKSTVANMLIEKGITVIDADIIAKQAVEKGMPAYRQIIDEFGEDILLSNGDIDRKKLGALVFTNEQKRLALNAIVHPAVRQEMLNRRDEAVANREAFVVLDIPLLFESKLESLVDKIIVVSVTKELQLERLMKRNQLTEEEAVSRIRSQMPLEEKTARADQVIDNSGTLEETKRQLDEIMNSWALEHHHHHH | soluble
6 | MGSDKIHHHHHHMKRISQQELESYLWGAAVLLRGLIDAGDYKQFIFPLLFYKRVSDVWDEEYQAALANSGGDLSYAQFAENHRFQIPAGAHWNDVRQTPKNVGAAIQKAMRAIESANPDLLDGIFGDAPWTNRERLPDETLKNLIEHFSTQTLSVANVPEDELGNAYEYLIKKFADDSGHTAAEFYTNRTVVHLMTQLLAPQAGESIYDPTCGTGGMLISALDEVKRAGGEYRTLKLYGQERNLITSSIARMNLFLHGVEDFEIIRGDTLAEPKHIEGDRLRQFDVILANPPYSIKQWNREAWSSDKWGRNSLGTPPQGRADYAFQQHILTSLTAKGRCAVLWPHGVLFRNEEQSMRAKMVEQDWVEAVIGLGPNLFYNSPMESCIVICNRKKAAARKGKVIFIDAVNEVARERAQSFLKPEHQQRILTAYKTFADVPGFAKVATLAEIGANAGNLSIPLYVKRIAAAIATDSNDDAVSLRSAWDQWQADGRAFWQQMDALVETLDGLVAQEAADA | not soluble
7 | MSLSSTFSARGPLLTAAVLLVGLLAGCASSQSATAPSPDDSGQAQSPAQNETGENGLKPFGDVVPDTARTDPGLLTTHRFDGKLYVEIPDSLIGRELLMVSRAAQTPDGFGYGGEKTATQVLRWQRRGDQLYLRVVSHEDMAQEDDPVYQAVQNSNLEPIIQSFSIEALNEDSTGVVAEVTDLFTSDVPSLGIPSAAREEYRVRRLDGDRTYIKGVESFPENTDIEAVLTYQAENPPSNASTKTLTVSMNHSMVLLPKEPMQPRLCDDRVGYFSVERVNYSSDEQRATEACFITRWKLEPKDPEAYARGELVEPKEPIVYYIDPATPKKWRPYLKQGVEAWQSTFREAGFKNAIIAKDPPSAEEDSTFDPDDIRYSTIRYFASEVQNAYGPHVHDPRSGEILESDIGWYHNVMNLLRNWYFVQTAAVNPEARKPVFSTEVMGKLVRFVAAHEVGHTLGLPHNMGSSNAVPVDSLRSPSYTADHGTAPSIMDYARFNYVAQPGDGVENFLPRIGTYDEWAVRWGYTKRPTGSPEEQAQTLDEMILEHTDDPRYFFGASGSIDPRSQSEDLGRDAMEASRLGIANLKRILPNLIQWTSRDGEGYATLEELYGAVVNQWRRYMGHVSQHLGGVHETPKTYGQEGPVYEPVSATDQERAVDFLLTHAFETPTWMVEADVLRRIEHAGALERVREAQVGVLDGVLDPERMARMLEAEAMSEDDVYGVGDLFGDLRGGVWAELESGSVIDPYRRNLQRGYLERLDYLMTAEVEAPPPEYQQYIDYTPVDVSQSDIRPYVRAELKTLRDDVQQGLRRTTDETTEMHLQDVLARIDQTLNGTEGHHHHHH | not soluble
8 | MEMKGINNIRIDDRLIHGQVATMWSNKLGVTRLMVVNDNVAKNDLQKQVLRMAVPAGISSSIITEETAISNIKNGKYEGQNVLMIVKSPVDLLPFIENDLEIKRINVGNMSNRNNTTVLRPNISVTDEERSAFEKLLSRDIEITTIMTPDDKKTFLKDIL | not soluble
9 | MYKPKNINSVLTFYKDQIQLVVSDDQNQFNILFYQTIDNDGFYSKQQLKNKLRLKLALNQLVDQANYFLGFKLEKVVVVLAELIDDLKIHNFKSEIFFTGYDFDHKAMIKKEKQRFCEQNNQLTVMDTMVLNYHDVINNKITKSFAFNKSYVANLVAYSSKSNLIGELKFFLKRNVNLKVKKIISHHLALANSLSKKQNNMFVYLGQKTTELMLFMDNALVDVITNQFGKNHFIDIPANQENKPLLEFLVDNTTKIGDCYSLGMTYTDGDSYKEIKALTIGDLMQTVSDKIKTLIDFINSGSLTFFNKFKTLPKLLYFYTRSKQITNLFQANVALINPQFKTVDIYKNKIQFISENYLLSCEAISLQITNRIKNQISFDFTNADNIQKPKPKKHFMILSKHLTKFVQRLVK | soluble
10 | MSLSDAAISCSWKPFFRELATRLLDYEDRQPELLAALRDASISINHDEGEPLREVDPFTFFSLVLKHTSDATALPLFARVGAALGVQAPSPTDLIGVPWSNPMNAWFFAYRSQRQPGDVPLLWRLARQAVAGILDAQTFEDALKIRKVALPKLTQGLFWLNPERFLALNAVNVPYLQARGLQAAGQVQTLAEYETVLEAAHKLNPDFAALSHRAWLNSQTAALEGNHFPFARYQADAQEFAGDKVKGNLVLDRRYAPLLLDLMAGEWETLKPSRSPYSGREQLAVKVALGGGVKTDGGAFARALLFADDSGFEYVPFSAGLTLEAGLPDGRGDGPRQALQEPARQHTLLTALNAPLPAGLEATLTLNTDFGALFLLPLGPGREAEAAQQLQQYMSGVGRSRRLRVGLSLLPEHLESDKFPELLDAALTYLDALVDLLDGLMRPSEETSTEEIGVPGTRPVAPTPAAFVPVPGVPLNQILYGPPGTGKTYRVVDEALSVLDPAFLSAHPGSEGRAARKARYDELAAQGQISFVTFHQSFGYEDFIEGIKPVMSGGALSYVLQDGVFLEAVRSAGGALAPAAPEAGPSTETQPLVRPDAQVWRMYIDGTAPVSRIRDLSLGRGELRMGSYGKPPRDLTQAGVEDLSGRQLLFKESVRVGDLMLLATAADRIGAVGVVTGDYRFDPHSDPTFATDYAHTRSVKWLAQDLNVGATETLGKSFAPPTLQRVADVTPAQVLQALGVSTAGGETAHAPTPRPHVLIIDEINRGNISKIFGELITLLESGKRTGAPEALTVTLPLSRRPLSVPQSLYVIGTMNTADRSLTLLDAALRRRFVFRPVWPQPEVLPVLDLGGTALDLRKFLHVINDRIERLLSREQVIGHAYLLGLPATLGGVSSALRERILPLLEEYFFEDWSKIREVLGDESKAEALQFIHRSGSGPELRYRLNPEAFENIEAFTGVYAGVSDQDFPFDEGHHHHHH | soluble
11 | MTQTVDIENTDNVLSRRDSNAETQQMLRQRFETQPDLMPAQLASELGIAELEVVTALPQAQRVFLPLAHMDELLQSLPEWGSLTTIVMLSGSVFEFKGDFPQGKFAHGYYNLYSKGDGLHGHLKLDGMRAIALISRPFRGSESHSINFFGPQGEVVFKVYLGRDKQRVLFPDQVRRFKALAATFAD | soluble
12 | MDLGSFGRIPPQNIEAEQSVLGAILLDKEVLSSVTEIISSQDFYREDHREIFEAIMDLYEKGEPIDLITVAEQLKVRGSLEAVGGLEYLTNLASLVPTTANAKHYAKIVEEKSILRRLIKASSEIINMGYEAAEEVSYVLDKAEKSIFDVLQKRNTQGFALIKDVLIDTFNRLEELYNNKGYITGIPTGFVDLDYKTAGLQNSDLILIAARPAMGKTSFVLNIAQYAAIHAKVPVAIFSLEMSKEQLVNRMLCCEAMVDSQKMRTGKLEDSDWQKVARALGPLSEAPIYIDDTPGLSVAEIRAKCRRLKLEKNLGLVVIDYLQLMQGRGKSESRQQEISEISRSLKILAKEINVPVLTLSQLSRAPELRSDHRPILSDLRESGAIEQDADIVMFLYRDDYYNPDTEKKNIAEVIIAKHRNGSTGTVELAWLGQYTKFANLEKYRQ | not soluble
13 | MGHHHHHHHSSENLYFQGHMRKIRVGLIFGGKSAEHEVSLQSARNILDALDPQRFEPVLIGIDKQGQWHVNDPDSFLLHADDPARIALHRSGRGVALLPGAQQQQLRPIQPEQALAQIDVVFPIVHGTLGEDGSLQGLLRMANLPFVGSGVLGSAVAMDKDMAKRVLRDARLAVAPFVCFDRHTAAHADVDTLIAQLGLPLFVKPANQGSSVGVSQVRTADAFAAALALALAYDHKVLVEAAVAGREIECAVLGNAVPHASVCGEVVVHDAFYSYATKYISEHGAEIVIPADIDAQTQQRIQQIAVQAYQALGCAGMARVDVFLCADGRIVINEVNTLPGFTRISVYPKLWQASGLDYRGLITRLIELALERHTDDQLLRSAVELH | soluble
14 | MSRLATLTWTSYRRGYTEIVTSAGLEVVFEPGDEWNSHDREYQQARLEVEGRGESGDGTVRTRTQALLRWQFKIKDGTVKRLPEADFTREVLVAVRLAIKDYRSQSSELRQKYFGPGFAMGG | not soluble
15 | MKKRGLENHPQNRKKIFERFPRLTKLSEKNLFQICKTTLLNERKMKSIQNTIDELRKLSAGKSSEEVQRLKEMQKHSKMFGEIFGVYGATVGKPKPKEKEVKVPTKEMTFEEKRKLLETTFPNKVTPGQRAKARETLNFIANNPEIYAIASPQDPSSKAKTDPVSRPQLNIISSFSWPITSGSDWSPHGSEFNDLTAPRVGKLTPVPQWSDMKKSSLKLGTEDNFSKMSYDPAYSNTTQSQSVTTLYNETSTPYYDDSDLGTPLHTCVQ | not soluble
